Patent US20040018580A1, “Synthetic substrates for prostasin” (priority 2002, published 2004)
One block for each molecule: values may come before it.

Tests used:
prostasin-mPBP complex = target: T1, prostasin-mPBP complex (Homo sapiens, UniProt Q16651); assay: Inhibition of complex formation between prostasin and mPBP (western blot); assay type: binding
T1 construct: made in house; mPBP: purified from mouse seminal vesicle fluid
Experimental: (§1) The procedures were performed according to Chen et al. Briefly, purified recombinant prostasin was incubated with samples from each purification step or the final purified mPBP at 37 degrees C. for 1 hour or for various times as indicated. The binding reaction was stopped by the addition of SDS sample buffer (1×SDS sample buffer=62.5 mM Tris-Hcl at Ph 6.8, 2% (v/v) glycerol, 2% SDS (w/v) and 2% Beta-mercaptoethanol). The reaction mixtures were then boiled for 5 min, and resolved in 10% SDS-polyacrylamide gels. The resolved proteins were then transferred to nitrocellulose membranes, and analyzed with either a prostasin antibody or the mPBP antibody. Signals were detected using an ECL detection procedure with the WestPico reagents (Pierce, Rockford, Ill.) following the manufacturer's protocol. The membrane was then exposed to X-ray film (Midwest Scientific, St. Louis, Mo.) The prostasin antibody was used at 1:2,000 dilution, the mPBP antibody was used at 1:10,000 dilution, and the secondary antibody (goat anti-rabbit IgG, Sigma-Aldrich) was used at 1:10,000 dilution. All antibodies were diluted in 5% non-fat milk in TBS-T (TBS-T=20 mM Tris-Hcl at pH 7.6, 0.14M NaCl and 0.1% Tween-20).
(§2) The purified mPBP was tested for its biochemical activities using the prostasin binding assay. Complex formation between mPBP and purified prostasin was analyzed by western blotting using the mPBP antibody and a prostasin antibody. […] The complex was detected after 30 seconds of incubation and progressed during the incubation time course (60 minutes). […] The complex formation of prostasin and mPBP was used as a control (FIG. 4C, lane 2).
(§3) It has been known that PN-1 can form complexes with various serine proteases, including thrombin. […] We also tested if the complex is pH dependent because prostasins's optimum pH is 9.0. […] We further tested if heparin may have a different effect on the complex formation between prostasin-mPBP versus on that between thrombin-mPBP.

prostasin [1] = target: T2, prostasin (Homo sapiens, UniProt Q16651); assay: Complex formation of recombinant GST-PN-1 with recombinant prostasin (immunoblot); assay type: binding; set-up: made in house; conditions: for complex formation of GST-PN-1 fusion protein with prostasin: 0.5 micrograms recombinant prostasin, 37 degrees C., 60 minutes
T2 sequence (Q16651 33-343): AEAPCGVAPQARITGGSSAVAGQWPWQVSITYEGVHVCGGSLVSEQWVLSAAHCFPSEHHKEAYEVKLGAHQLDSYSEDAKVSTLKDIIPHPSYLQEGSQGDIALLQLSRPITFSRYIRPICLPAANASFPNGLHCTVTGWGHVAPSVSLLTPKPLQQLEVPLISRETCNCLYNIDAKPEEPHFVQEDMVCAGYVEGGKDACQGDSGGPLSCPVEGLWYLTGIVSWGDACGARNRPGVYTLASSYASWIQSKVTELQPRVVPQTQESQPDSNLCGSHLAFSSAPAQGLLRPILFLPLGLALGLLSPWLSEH
Experimental: To establish if mPBP is indeed protease nexin-1, mouse and human protease nexin-1 (PN-1) cDNA were cloned into the pGEX-6P-1 expression vector. The recombinant protein products have the schistosomal glutathione-S-transferase (GST) fused to t he N-terminus of the PN-1. The GST fusion proteins were affinity-purified using glutathione-conjugated agarose-beads. For each type of recombinant protein, cleared supernatant of cell lysate from one liter of culture was incubated with 1 ml of […] glutathione-beads. The beads were eluted with 1 ml of fresh 10 mM glutathione in 50 mM Tris-Hcl, pH 8.0. Twenty microliters of the eluent were incubated with 0.5 micrograms of recombinant prostasin at 37 degrees C. for 60 minutes in the absence or presence of aprotinin. Both the GST-mPN-1 (FIG. 8, lane 1 alone at 64 kDa) and the GST-hPN-1 (FIG. 8, lanes 2 and 5). […] An immunoreactive band at 30 kDa and two other minor immunoreactive bands at 42 kDa and 60 kDa were likely the products of non-specific degradation of the recombinant PN-1, since no protease inhibitors were added in the cell lysate during purification.

prostasin [2] = target: T2, prostasin; assay: Enzymatic assay with QAR-AMC substrate (residual activity of prostasin); assay type: biochemical; set-up: made in house
Experimental: Recombinant human prostasin was purified as described in Chen et al. A synthetic substrate, N-t-Boc-Gln-Ala-Arg-7-amido-4-methyl coumarin (QAR-AMC) was purchased from Sigma-Aldrich. The purified mPBP (concentration range 0-0.4 micromolar) was incubated with prostasin (0.8 micromolar) for 30 mins at 37 degrees C. The binding reaction mixture (20 microliters) was then added to 80 microliters of […] Tris-HCL) pH 8.0/0.1% bovine serum albumin containing the QAR-AMC substrate (final concentration: 100 micromolar) in 96-well microtiter plates (Costar 3903, Cambridge, Mass.). The velocity of substrate hydrolysis was measured using a Wallac 1420 Victor mulitlabel counter at wavelength 355 nm and wavelength 460 nm. The residual activity of prostasin (velocity of the inhibited enzyme reaction/velocity of the uninhibited enzyme reaction) as plotted versus the mPBP concentration.
QAR-AMC was used as a substrate for prostasin to test the inhibitory activity of the purified mPBP. Pprostasin (0.8 micromolar) was incubated with 0, 0.05, 0.1, 0.2 or 0.4 micromolar mPBP at 37 degress C. for 30 mins. The reaction mixture was then to the assay buffer containing a final concentration of 100 micromolar QAR-AMC substrate.

thrombin-mPBP complex = target: T3, thrombin-mPBP complex (Homo sapiens, UniProt P00734); assay: Effect of heparin on complex formation between thrombin and mPBP; assay type: binding; conditions: heparin at 0.25 unit/reaction, FIG. 6B
T3 construct: mPBP: purified from mouse seminal vesicle fluid
Text: as §3

factor Xa = conditions: cited from earlier work
thrombin [3] = target: T4, thrombin (Homo sapiens, UniProt P00734); conditions: cited from earlier work
[4] = target: T5, purified recombinant prostasin (Homo sapiens, UniProt Q16651); assay: Prostasin-binding assay (complex formation, western blot)
T5 construct: made in house
T5 sequence (Q16651 33-343): as above
Experimental: as §1, §2

thrombin [5] = target: T4, thrombin; assay: Complex formation between thrombin and mPBP; assay type: binding
Text: as §3

prostasin [6] = target: T2, prostasin; assay: Membrane-overlay zymography of prostasin activity; assay type: biochemical
[7] = binding conditions of increasing pH

Molecule: O=S(=O)(F)Cc1ccccc1 [PMSF]
effect on prostasin-mPBP complex formation (prostasin-mPBP complex; FIG. 4C): inhibited

B1: GST-hPN-1: recombinant human PN-1 with glutathione-S-transferase fused to the N-terminus (protein)
chain: SHFNPLSLEELGSNTGIQVFNQIVKSRPHDNIVISPHGIASVLGMLQLGADGRTKKQLAMVMRYGVNGVGKILKKINKAIVSKKNKDIVTVANAVFVKNASEIEVPFVTRNKDVFQCEVRNVNFEDPASACDSINAWVKNETRDMIDNLLSPDLIDGVLTRLVLVNAVYFKGLWKSRFQPENTKKRTFVAADGKSYQVPMLAQLSVFRCGSTSAPNDLWYNFIELPYHGESISMLIALPTESSTPLSAIIPHISTKTIDSWMSIMVPKRVQVILPKFTAVAQTDLKEPLKVLGITDMFDSSKANFAKITTGSENLHVSHILQKAKIEVSEDGTKASAATTAILIARSSPPWFIVDRPFLFFIRHNPTGAVLFMGQINKP
modifications: left off: a dimerising Fc or GST
notes: recombinant human PN-1 with glutathione-S-transferase fused to the N-terminus
complex formation of GST-PN-1 fusion protein with prostasin (prostasin [1]): form a 100 kDa complex

B3: PN-1: protease nexin-1, a serine protease inhibitor (serpin) (protein)
chain: SQFNSLSLEELGSNTGIQVFNQIIKSRPHENVVVSPHGIASILGMLQLGADGKTKKQLSTVMRYNVNGVGKVLKKINKAIVSKKNKDIVTVANAVFLRNGFKMEVPFAVRNKDVFQCEVQNVNFQDPASASESINFWVKNETRGMIDNLLSPNLIDGALTRLVLVNAVYFKGLWKSRFQPESTKKRTFVAGDGKSYQVPMLAQLSVFRSGSTRTPNGLWYNFIELPYHGESISMLIALPTESSTPLSAIIPHITTKTIDSWMNTMVPKRMQLVLPKFTAVAQTDLKEPLKALGITEMFEPSKANFTKITRSESLHVSHILQKAKIEVSEDGTKASAATTAILIARSSPPWFIVDRPFLFSIRHNPTGAILFLGQVNKP
inhibitory activity of PN-1 to factor Xa in the presence of heparin (factor Xa): enhanced
inhibitory activity of PN-1 to thrombin in the presence of heparin (thrombin [3]): enhanced

Second part, led by results:

effect on GST-PN-1/prostasin complex formation (prostasin [1]; in the presence of aprotinin, FIG. 8 lanes 3 and 6): inhibited
effect on prostasin-mPBP complex formation (prostasin-mPBP complex; FIG. 4C): inhibited
Molecule: aprotinin [reference compound]

effect on prostasin-mPBP complex formation (prostasin-mPBP complex; FIG. 4C): inhibited
effect on prostasin-mPBP complex formation (prostasin-mPBP complex; heparin at 0.25 unit/reaction, FIG. 6B): completely abolished
effect on thrombin-mPBP complex formation (thrombin-mPBP complex): not between thrombin-PMP
Molecule: heparin
effect on prostasin inhibition by mPBP (prostasin [2]; pre-incubation of mPBP and heparin, QAR-AMC substrate): able to prevent prostasin inhibition by mPBP

complex formation of GST-PN-1 fusion protein with prostasin (prostasin [1]): form a 100 kDa complex
B2: GST-mPN-1: recombinant mouse PN-1 with glutathione-S-transferase fused to the N-terminus (protein)
chain: SQFNSLSLEELGSNTGIQVFNQIIKSRPHENVVVSPHGIASILGMLQLGADGKTKKQLSTVMRYNVNGVGKVLKKINKAIVSKKNKDIVTVANAVFLRNGFKMEVPFAVRNKDVFQCEVQNVNFQDPASASESINFWVKNETRGMIDNLLSPNLIDGALTRLVLVNAVYFKGLWKSRFQPESTKKRTFVAGDGKSYQVPMLAQLSVFRSGSTRTPNGLWYNFIELPYHGESISMLIALPTESSTPLSAIIPHITTKTIDSWMNTMVPKRMQLVLPKFTAVAQTDLKEPLKALGITEMFEPSKANFTKITRSESLHVSHILQKAKIEVSEDGTKASAATTAILIARSSPPWFIVDRPFLFSIRHNPTGAILFLGQVNKP
modifications: left off: a dimerising Fc or GST
notes: recombinant mouse PN-1 with glutathione-S-transferase fused to the N-terminus

pH dependence of complex formation of mPBP and prostasin [4, 7]: increased with higher pH
complex formation with prostasin ([4]; purified mPBP, western blot): formed a complex with prostasin
incubation time after which the prostasin-mPBP complex was detected ([4]; time course up to 60 minutes, 37 degrees C.): 30 s
inhibition of prostasin's activity (prostasin [2]; prostasin 0.8 micromolar with 0-0.4 micromolar mPBP, 37 degrees C., 30 mins, 100 micromolar QAR-AMC): inhibited in a dose dependent manner
pH dependence of complex formation of mPBP and thrombin (thrombin [5]; [7]): somewhat decreased with increasing pH
inhibition of prostasin's activity by membrane-overlay zymography (prostasin [6]): inhibits prostasin's activity
B4: mPBP: mouse prostasin-binding protein purified from mouse seminal vesicle fluid, 45 kDa; identified as the serpin protease nexin-1 (protein)
chain: SQFNSLSLEELGSNTGIQVFNQIIKSRPHENVVVSPHGIASILGMLQLGADGKTKKQLSTVMRYNVNGVGKVLKKINKAIVSKKNKDIVTVANAVFLRNGFKMEVPFAVRNKDVFQCEVQNVNFQDPASASESINFWVKNETRGMIDNLLSPNLIDGALTRLVLVNAVYFKGLWKSRFQPESTKKRTFVAGDGKSYQVPMLAQLSVFRSGSTRTPNGLWYNFIELPYHGESISMLIALPTESSTPLSAIIPHITTKTIDSWMNTMVPKRMQLVLPKFTAVAQTDLKEPLKALGITEMFEPSKANFTKITRSESLHVSHILQKAKIEVSEDGTKASAATTAILIARSSPPWFIVDRPFLFSIRHNPTGAILFLGQVNKP
complex formation with thrombin (thrombin [5]; purified mPBP): formed a complex with prostasin as well as thrombin
